According to patent publication CN115785273A (DONGGUAN PENGZHI BIOTECHNOLOGY CO LTD, dated 2023):

B1: Anti-HPG I 8C20单克隆抗体 (antibody, V domains shown)
VH: QVQLQQPGAELVRPGASVKLSCKASDYTFTSYWMNWVKQRPEQGLEWIGRIDPYDSETHYNQKFKDKAILTVDKSSSTAYMQLSSLTSEDSAVYYCARFSMVVAVYAMDYWGQGTSVTVSS
VL: DIQMTQSPASLSASVGETVTITCRASGNIHNYLAWFQQKQGKSPQILVYYAKTLADGVPSRFSGSGSGTQFSLKINSLQPEDFGSYYCQHFWSTPWTFGGGTKLEIK

Target: T1, PG I蛋白(fitzgerald，30R-AP038) (UniProt P0DJD8 16-388)
T1 construct: Commercial antigen; Pepsinogen I is a group of isozymogens (PGA3/PGA4/PGA5); also called 胃蛋白酶原I; HPG I
T1 sequence (P0DJD8 16-388): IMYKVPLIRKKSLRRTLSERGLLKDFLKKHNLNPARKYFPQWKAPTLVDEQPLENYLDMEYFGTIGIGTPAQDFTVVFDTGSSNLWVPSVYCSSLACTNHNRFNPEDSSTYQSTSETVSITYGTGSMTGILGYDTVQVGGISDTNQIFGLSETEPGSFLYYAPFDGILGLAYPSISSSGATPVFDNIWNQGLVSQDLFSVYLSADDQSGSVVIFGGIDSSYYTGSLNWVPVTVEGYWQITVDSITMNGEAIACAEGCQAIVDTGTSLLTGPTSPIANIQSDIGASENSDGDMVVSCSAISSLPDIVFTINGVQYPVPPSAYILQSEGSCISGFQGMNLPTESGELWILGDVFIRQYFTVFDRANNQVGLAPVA
Test: BLI, AMC sensors, antibody captured at 10 μg/mL, PG I protein in serial dilution in PBST

Kd [nM] | koff [s⁻¹] | kon [M⁻¹ s⁻¹] | Molecule
0.297 | 0.000273 | 919000 | 对照抗体 (antibody)
0.0309 | 2.85e-05 | 921000 | B1
